The assay concerns the target normal undigested taxol microtubules (αβ-MTs) of porcine brain tubulin (porcine (brain)) (UniProt P02550). Nature of the assay: co-sedimentation.

Turning to “CLIP-170 MT-binding domain fragment H1^1–350 (from UniProt P30622 1-350) (domain or fragment)”, the dissociation constant (Kd) is 510 nM and the percent dissociated at 100 mM NaCl was found to be 30%.

The record behind these values is paper PMC2990918.
